In patent US20060199761A1, “Insulin resistance improving agent” (Japan Science And Technology Agency, priority 2002, published 2006):

Experiments:
lipoatrophic mice [1] = test: Lipoatrophic mice (PPAR-γ+/− mice treated with HX531) with or without adiponectin, gAd or leptin; type: in vivo, mouse; conditions: for Liver TG content / Serum FFA / Serum TG / Skeletal muscle TG content: HF diet; for insulin resistance (FIG. 8): mice without adipose tissue, administration at a physiological concentration; for hyperglycemia and hyperinsulinemia (insulin resistance index, FIG. 8): lipoatrophic mice, continuous systemic infusion
Experimental: (§1) The measurements of [^14C] CO2 production from [1-^14C] palmitic acid were performed using liver and muscle slices as described (Diabetes 47, 1841-1847 (1998)). Liver and muscle homogenates were prepared, and tissue triglyceride content was determined with an extract solution (CHCl3:CH3OH=2:1). The remainder of the liver and muscle was immediately frozen in liquid nitrogen and stored at −80° C. until measurement of the enzymatic activity of ACO. ACO activity in the light mitochondrial fraction of liver and muscle was measured by assay that was based on the H2O2 dependent oxidation of leuco-dichlorofluorescein (Diabetes 47, 1841-1847 (1998)).
Unless otherwise described herein, administration was performed through continuous systemic infusion (pump) in combination with a high-fat (HF) diet for the final twelve days of the six-week HX531 treatment.
FIGS. 9 and 10 show mRNAs of fatty-acid translocase (FAT)/CD36, ACO, UCP2, and PPAR-α in mouse skeletal muscle and in liver, respectively. […] HX531 was administered as a 0.1% food admixture. Mice were stimulated with or without 1 U/g body weight of insulin for two minutes. Lysates were subjected to immunoprecipitation (IP) and immunoblotting through use of the antibodies described in Mol. Cell. Biol. 16, […] (1996).

lipoatrophic mice [2] = test: as above; type: in vivo, mouse; conditions: HX531 for four weeks
db/db mice [3] = test: Rosiglitazone treatment of db/db mice on high-fat diet (adiponectin expression, glucose tolerance test)
KKA^y mice [4] = test: Adiponectin administration to KKAy mice on high-fat diet; type: in vivo, mouse; conditions: for ACO activity, liver / ACO activity, skeletal muscle / Fatty acid oxidation [14C] palmitate→CO2, liver / Fatty acid oxidation [14C] palmitate→CO2, skeletal muscle / Rectal temperature / Serum FFA / Serum TG / TG content, liver / TG content, skeletal muscle: high fat diet, two weeks
Experimental: as §1
The mice were fed an HC or HF diet.
The following values were determined through use of KKA^y mice: acyl-CoA oxidase (ACO) activity and fatty acid oxidation in the skeletal muscle and in the liver, tissue triglyceride content in the skeletal muscle and in the liver, and serum free fatty acid level and serum triglyceride level. Mice were fed with high fat diet, and full-length adiponectin (Ad) or adiponectin globular domain (gAd) was administered to each mice at a dose shown in Table 2 for two weeks.

KK mice = test: Adiponectin administration to KK mice (serum leptin); type: in vivo, mouse
Experimental: (§2) Adiponectin or leptin was administered to mice through intraperitoneal injection or continuous systemic infusion as described (Nature 401, 73-76 (1999)). An Alzet micro-osmotic pump (model 1002, Alza) was inserted subcutaneously in the back of each mouse. A daily dose (shown in Figures) of recombinant leptin (Sigma) or adiponectin was dissolved in a total volume of 0.1 mL of PBS, and the solution was delivered to mice through the pump for twelve days.

db/db mice [5] = tested on: db/db mice
Experimental: as §2
(§3) The areas of glucose and insulin curves were calculated by multiplying the cumulative mean height of the glucose values (1 mg/ml=1 cm) and insulin values (1 ng/ml=1 cm), respectively, by time (60 min=1 cm) (Am. J. Physiol. 240, E482-488 (1981)).
(§4) The mice were fed an HC or HF diet. In addition, Ad or gAd was administered, or none of these was administered, to the mice at a predetermined dose (μg/day).

PPAR-γ+/− mice = test: Adiponectin infusion in PPAR-γ+/− mice on high-fat diet without HX531 (tissue TG, serum FFA/TG); type: in vivo, mouse; conditions: HF diet, no HX531, Ad 50 μg/day continuous infusion 12 days
Experimental: as §1
While PPAR-γ^+/− mice were treated with HX531 for six weeks (+) or untreated (−), recombinant full-length adiponectin (Ad), gAd, or leptin (Lep) was administered to each PPAR-γ^+/− mouse at a predetermined dose (μg/day). Administration was performed through continuous systemic infusion in combination with the high-fat (HF) diet for the final twelve days of the six-week HX531 treatment (six weeks).

KKA^y mice [6] = test: Adiponectin administration to KKAy mice on high-fat diet; type: in vivo, mouse; conditions: adiponectin-administered KKAy mice
[7] = PPAR-γ+/− mice, HX531 alone for 6 weeks
[8] = HX531 6 weeks + gAd 2.5 μg/day continuous infusion final 12 days
[9] = gAd at a low concentration, mRNA (FIG. 9)
[10] = normal C57 mice, high-fat diet, two weeks
[11] = HX531 6 weeks + Ad 50 μg/day continuous infusion final 12 days
[12] = db/db mice, adiponectin replenishment

Experimental for C57 mice: as §2, §3, §4

Question: `CN1c2ccc([N+](=O)[O-])cc2N=C(c2ccc(C(=O)O)cc2)c2cc3c(cc21)C(C)(C)CCC3(C)C` [HX531, reference compound] was tested. Which “Liver TG content” value (lipoatrophic mice [1]; [7]) did it give?
Answer: 19.36 ± 1.23 mg/g tissue

Question: And the “Serum FFA” value (lipoatrophic mice [1]; [7])?
Answer: 1.48 ± 0.25 mEq/L

Question: What about the “Serum TG” value (lipoatrophic mice [1]; [7]) of the same molecule?
Answer: 201.4 ± 25.3 mg/dL

Question: What about the “Skeletal muscle TG content” value (lipoatrophic mice [1]; [7]) of the same molecule?
Answer: 15.96 ± 1.47 mg/g tissue

Question: And the “lowering of expression of lipoprotein lipase (LPL) in WAT” value (lipoatrophic mice [1]; PPAR-γ+/− mice, HX531 for three weeks)?
Answer: ≥ 90%

Question: What about the “visible WAT” value (lipoatrophic mice [2]) of the same molecule?
Answer: disappearance of visible WAT

Question: Which adipose tissue mass (db/db mice [3]) does the source give for `CN(CCOc1ccc(CC2SC(=O)NC2=O)cc1)c1ccccn1` (stereo not drawn) [Rosiglitazone] here?
Answer: 2.84 ± 0.16 g

Question: And the body weight (db/db mice [3])?
Answer: 47.9 ± 1.0 g

Question: Which “insulin resistance (FIG. 8)” value (lipoatrophic mice [1]) does the source give for leptin: recombinant leptin (Sigma) here?
Answer: alleviate their insulin resistance, albeit partially

B1: gAd: C-terminal globular domain of adiponectin, recombinant histidine-tagged fusion protein (protein, listed as Homo sapiens)
chain: AFSVGLETYVTIPNMPIRFTKIFYNQQNHYDGSTGKFHCNIPGLYYFAYHITVYMKDVKVSLFKKDKAMLFTYDQYQENNVDQASGSVLLHLEVGDQVWLQVYGEGERNGLYADNDNDSTFTGFLL
modifications: CDS (1)..(735)
Question: B1 was tested. Which “Liver TG content” value (lipoatrophic mice [1]; [8]) did it give?
Answer: 13.81 ± 0.91 mg/g tissue

Question: What about the “Serum FFA” value (lipoatrophic mice [1]; [8]) of the same molecule?
Answer: 0.43 ± 0.14 mEq/L

Question: What about the “Serum TG” value (lipoatrophic mice [1]; [8]) of the same molecule?
Answer: 100.3 ± 17.5 mg/dL

Question: What about the “Skeletal muscle TG content” value (lipoatrophic mice [1]; [8]) of the same molecule?
Answer: 3.88 ± 1.74 mg/g tissue

Question: What about the “expression of CD36, acyl-CoA oxidase (ACO) and uncoupling protein (UCP) 2 in skeletal muscle” value (lipoatrophic mice [1]; [9]) of the same molecule?
Answer: increased

Question: What about the “expression of PPAR-α in skeletal muscle” value (lipoatrophic mice [1]; [9]) of the same molecule?
Answer: increased

Question: What about the “expression of CD36 in the liver” value (lipoatrophic mice [1]; gAd at a low concentration, mRNA (FIG. 10)) of the same molecule?
Answer: decreased

Question: What about the “hyperglycemia and hyperinsulinemia (insulin resistance index, FIG. 8)” value (lipoatrophic mice [1]) of the same molecule?
Answer: much more potently than full-length adiponectin

Question: And the serum leptin levels (KKA^y mice [4])?
Answer: 57.9 ± 5.7 ng/mL

Question: And the “ACO activity, liver” value (KKA^y mice [4]; gAd 2.5 μg/day)?
Answer: 2.89 ± 0.35 nmol/mg/min

Question: And the “ACO activity, skeletal muscle” value (KKA^y mice [4]; gAd 2.5 μg/day)?
Answer: 0.42 ± 0.04 nmol/mg/min

Question: What about the “Fatty acid oxidation [14C] palmitate→CO2, liver” value (KKA^y mice [4]; gAd 2.5 μg/day) of the same molecule?
Answer: 2.89 ± 0.21 nmol/g/h

Question: And the “Fatty acid oxidation [14C] palmitate→CO2, skeletal muscle” value (KKA^y mice [4]; gAd 2.5 μg/day)?
Answer: 4.06 ± 0.44 nmol/g/h

Question: What about the Rectal temperature (KKA^y mice [4]; gAd 2.5 μg/day) of the same molecule?
Answer: 37.7 ± 0.1 °C

Question: And the “Serum FFA” value (KKA^y mice [4]; gAd 2.5 μg/day)?
Answer: 0.39 ± 0.04 mEq/L

Question: And the “Serum TG” value (KKA^y mice [4]; gAd 2.5 μg/day)?
Answer: 96.4 ± 18.3 mg/dL

Question: What about the “TG content, liver” value (KKA^y mice [4]; gAd 2.5 μg/day) of the same molecule?
Answer: 16.04 ± 0.91 mg/g tissue

Question: And the “TG content, skeletal muscle” value (KKA^y mice [4]; gAd 2.5 μg/day)?
Answer: 8.06 ± 0.61 mg/g tissue

Question: And the serum leptin levels (KK mice)?
Answer: 13.4 ± 2.7 ng/mL

Question: And the Food intake (C57 mice; C57 mice on high-fat diet)?
Answer: 6.28 ± 0.51 g/day

Question: What about the WAT weight (C57 mice; [10]) of the same molecule?
Answer: 0.48 ± 0.04 g

Question: And the body weight (C57 mice; [10])?
Answer: 20.6 ± 2.1 g

Question: What about the serum leptin levels (C57 mice; wild-type mice) of the same molecule?
Answer: 10.4 ± 2.6 ng/mL

Question: And the serum leptin levels (db/db mice [5]; db/db mice)?
Answer: 145.2 ± 14.7 ng/mL

B2: Ad: recombinant full-length mouse adiponectin, histidine-tagged fusion protein expressed in bacteria (protein, UniProt Q15848 19-244, looked up)
Adiponectin: ETTTQGPGVLLPLPKGACTGWMAGIPGHPGHNGAPGRDGRDGTPGEKGEKGDPGLIGPKGDIGETGVPGAEGPRGFPGIQGRKGEPGEGAYVYRSAFSVGLETYVTIPNMPIRFTKIFYNQQNHYDGSTGKFHCNIPGLYYFAYHITVYMKDVKVSLFKKDKAMLFTYDQYQENNVDQASGSVLLHLEVGDQVWLQVYGEGERNGLYADNDNDSTFTGFLLYHDTN
Question: What does the source list for B2?
Answer: Liver TG content (PPAR-γ+/− mice): 6.45 ± 0.26 mg/g tissue; Serum FFA (PPAR-γ+/− mice): 0.35 ± 0.02 mEq/L; Serum TG (PPAR-γ+/− mice): 60.5 ± 6.0 mg/dL; Skeletal muscle TG content (PPAR-γ+/− mice): 5.47 ± 0.32 mg/g tissue; Liver TG content (lipoatrophic mice [1]; [11]): 16.19 ± 0.72 mg/g tissue; Serum FFA (lipoatrophic mice [1]; [11]): 0.61 ± 0.13 mEq/L; Serum TG (lipoatrophic mice [1]; [11]): 106.6 ± 18.1 mg/dL; Skeletal muscle TG content (lipoatrophic mice [1]; [11]): 7.74 ± 0.65 mg/g tissue; insulin-induced tyrosine phosphorylation of insulin receptor and insulin-receptor substrate 1 and insulin-stimulated phosphorylation of Akt kinase in skeletal muscle (lipoatrophic mice [1]; adiponectin-administered lipoatrophic mice (FIG. 11)): increase; hyperglycemia and hyperinsulinemia (insulin resistance index, FIG. 8) (lipoatrophic mice [1]): significantly ameliorated; insulin resistance (FIG. 8) (lipoatrophic mice [1]): not sufficient to completely ameliorate insulin resistance; ACO activity, liver (KKA^y mice [4]; Ad 50 μg/day): 3.04 ± 0.85 nmol/mg/min; ACO activity, skeletal muscle (KKA^y mice [4]; Ad 50 μg/day): 0.37 ± 0.04 nmol/mg/min; Fatty acid oxidation [14C] palmitate→CO2, liver (KKA^y mice [4]; Ad 50 μg/day): 2.92 ± 0.29 nmol/g/h; Fatty acid oxidation [14C] palmitate→CO2, skeletal muscle (KKA^y mice [4]; Ad 50 μg/day): 3.95 ± 0.58 nmol/g/h; Rectal temperature (KKA^y mice [4]; Ad 50 μg/day): 37.3 ± 0.2 °C; Serum FFA (KKA^y mice [4]; Ad 50 μg/day): 0.67 ± 0.09 mEq/L; Serum TG (KKA^y mice [4]; Ad 50 μg/day): 101.3 ± 19.7 mg/dL; TG content, liver (KKA^y mice [4]; Ad 50 μg/day): 16.15 ± 0.83 mg/g tissue; TG content, skeletal muscle (KKA^y mice [4]; Ad 50 μg/day): 8.75 ± 0.58 mg/g tissue; serum adiponectin levels (C57 mice; mouse, in vivo): partially restored; expression of leptin in WAT (C57 mice; wild-type mice): did not alter; hyperglycemia and hyperinsulinemia induced by high-fat diet (GTT) (C57 mice; wild-type mice on high-fat diet, continuous systemic infusion of low doses): significantly ameliorated; hyperinsulinemia (GTT, FIG. 14) (db/db mice [5]; [12]): significantly ameliorated; leptin receptor deficiency-induced hyperglycemia (GTT, FIG. 13) (db/db mice [5]; [12]): significantly ameliorated; serum adiponectin levels (db/db mice [5]; mouse, in vivo): partially restored; expression of enzymes involved in β-oxidation and UCP2 in skeletal muscle (KKA^y mice [6]): increased
